The subject of this data set is T1, Nc1ncnc2c1ncn2[C@@H]1O[C@H](COP(=O)(O)OP(=O)(O)OP(=O)(O)O)[C@@H](O)[C@H]1O.
T1 construct: codon-optimised synthetic gene in pET-23b (NdeI/XhoI), C-terminal His6 tag kept, expressed in E. coli BL21(DE3), heat-treated at 60 °C, HisTrap; approx. 27 kDa by SDS-PAGE
The experiment in a line: purified protein. Format: biochemical, Thermus scotoductus. The settings on record: ssRNA oligonucleotide (5'-R20-FAM-3') as co-substrate, 10 mM MgCl2, pH 8.0, 60 °C, ATP 0.1-50 µM.

As for Ts-Clp1 (Thermus scotoductus SA-01), the Km is listed as 2.5 µM.

Source of the values: article PMC6777427, “Large-Scale Molecular Evolutionary Analysis Uncovers a Variety of Polynucleotide Kinase Clp1 Family Proteins in the Three Domains of Life” (Genome Biology and Evolution, 2019).
